According to publication PMC9364032, “RNA induces unique tau strains and stabilizes Alzheimer’s disease seeds”:

Tests used:
Details in all cases: protein: recombinant; single strand
[1] = target: T1, tau 2N4R full-length monomer, WT (UniProt P10636-8 1-441); assay: BLI; apparent Kd, 2:1 model; kon 1.0e4 M-1 s-1, koff 1.4e-4 s-1; mean of 3; BLI (Octet, AR2G sensors, tau immobilized), nucleic acid 0.13-41 uM; buffer, salt, pH and temperature not given in the material
[2] = target: T1, tau 2N4R full-length monomer, WT; assay: BLI; apparent Kd, 2:1 model; kon 2.8e4 M-1 s-1, koff 3.4e-4 s-1; mean of 3; BLI (Octet, AR2G sensors, tau immobilized), nucleic acid 0.13-41 uM; buffer, salt, pH and temperature not given in the material
[3] = target: T1, tau 2N4R full-length monomer, WT; assay: BLI; apparent Kd, 2:1 model; kon 1.7e3 M-1 s-1, koff 4.2e-4 s-1; mean of 3; BLI (Octet, AR2G sensors, tau immobilized), nucleic acid 0.13-41 uM; buffer, salt, pH and temperature not given in the material

T1 sequence (P10636 other isoform, or with tags, fused parts or gaps): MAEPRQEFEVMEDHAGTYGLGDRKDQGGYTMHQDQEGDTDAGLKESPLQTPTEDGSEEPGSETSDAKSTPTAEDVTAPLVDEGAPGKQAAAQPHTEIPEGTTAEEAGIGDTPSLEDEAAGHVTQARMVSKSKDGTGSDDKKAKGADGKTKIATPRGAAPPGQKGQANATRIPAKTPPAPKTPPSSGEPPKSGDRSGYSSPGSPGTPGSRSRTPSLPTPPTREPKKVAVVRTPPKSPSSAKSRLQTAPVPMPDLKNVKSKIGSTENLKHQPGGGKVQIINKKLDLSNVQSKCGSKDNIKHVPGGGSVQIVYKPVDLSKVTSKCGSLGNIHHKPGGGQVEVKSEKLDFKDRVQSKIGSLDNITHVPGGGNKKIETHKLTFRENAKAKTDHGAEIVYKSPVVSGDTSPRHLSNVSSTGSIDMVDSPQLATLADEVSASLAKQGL

## AAAAAAAAAAAAAAAAAAAAAAAAAAAAAAAAAAAAAAAA (ssRNA) [PolyA 40-mer RNA]
[1]
  Kd: 20 nM

## GTTAAGTCCCGAACTAGATGTGACCTAACGGTAAGAGAAT (ssDNA) [ssDNA Seq1 (random 40-mer)]
[2]
  Kd: 12 nM

## UUUUUUUUUUUUUUUUUUUUUUUUUUUUUUUUUUUUUUUU (ssRNA) [PolyU 40-mer RNA]
[3]
  Kd: 254 nM
